For this experiment, the target named is T1, MauG, bis-Fe(IV) redox state (UniProt Q51658 21-387).
T1 sequence (looked up): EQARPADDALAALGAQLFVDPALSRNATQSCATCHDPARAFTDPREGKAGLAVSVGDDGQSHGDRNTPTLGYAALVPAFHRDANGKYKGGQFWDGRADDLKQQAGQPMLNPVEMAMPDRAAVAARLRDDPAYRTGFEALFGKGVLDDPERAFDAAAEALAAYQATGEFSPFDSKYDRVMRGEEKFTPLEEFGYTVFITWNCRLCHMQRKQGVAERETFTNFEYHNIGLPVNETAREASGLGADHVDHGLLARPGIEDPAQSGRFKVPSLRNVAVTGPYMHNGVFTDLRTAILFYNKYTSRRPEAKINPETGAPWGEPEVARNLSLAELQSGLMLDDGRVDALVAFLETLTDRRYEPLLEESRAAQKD
The experiment can be described thus: stopped-flow single-turnover kinetics.

B1: amicyanin from Paracoccus denitrificans, wild type, reduced Cu(I) form (natural protein, UniProt P22364 27-131, looked up)
chain: DKATIPSESPFAAAEVADGAIVVDIAKMKYETPELHVKVGDTVTWINREAMPHNVHFVAGVLGEAALKGPMMKKEQAYSLTFTEAGTYDYHCTPHPFMRGKVVVE
In the case of B1, binding was put at a Kd of 165 ± 50 µM.

B2: P94A amicyanin, reduced Cu(I) form (natural protein, Paracoccus denitrificans, UniProt P22364 27-131, looked up)
chain: DKATIPSESPFAAAEVADGAIVVDIAKMKYETPELHVKVGDTVTWINREAMPHNVHFVAGVLGEAALKGPMMKKEQAYSLTFTEAGTYDYHCTAHPFMRGKVVVE
As to B2, binding was put at a Kd of 240 ± 82 µM.

Source of the values: article PMC4843787 (Biochimica et biophysica acta, 2015).
